Reference: article PMC4941050, “Extra-coding RNAs regulate neuronal DNA methylation dynamics”

Columns and labels:
DNMT3a-CD [1] = molecular target: T1, DNMT3a-CD (mouse, UniProt O88508 608-908); assay: competition EMSA; vs 1 nM Cy5.5-ecRNA-1; competitor 1-100 nM; 20 mM HEPES, 40 mM KCl, 1 mM EDTA, 0.2 mM DTT, 0.1 mg/ml BSA, 0.1% Tween-20, 20% glycerol; pH not stated; 1 h at 37 C; 1 nM probe; native 4-20% PAGE; conditions: protein: recombinant; chain copies: 2; blunt
DNMT3a-CD [2] = molecular target: T1, DNMT3a-CD; assay: EMSA; DNMT3a-CD 0.002-0.2 uM; value only in figure, text: low nanomolar, same as dsDNA (P=0.49); 20 mM HEPES, 40 mM KCl, 1 mM EDTA, 0.2 mM DTT, 0.1 mg/ml BSA, 0.1% Tween-20, 20% glycerol; pH not stated; 1 h at 37 C; 1 nM probe; native 4-20% PAGE; conditions: protein: recombinant; label: 5'-Cy5.5; predicted stem-loop
[3] = molecular target: DNMT3a (in DNMT3a/DNMT3l complex);DNMT3l (human;human, UniProt Q9Y6K1;Q9UJW3 1-912;1-386, |); assay: EMSA; 0.2 uM protein; 20 mM HEPES, 40 mM KCl, 1 mM EDTA, 0.2 mM DTT, 0.1 mg/ml BSA, 0.1% Tween-20, 20% glycerol; pH not stated; 1 h at 37 C; 1 nM probe; native 4-20% PAGE
DNMT3a-CD [4] = molecular target: T1, DNMT3a-CD; assay: EMSA; 0.2 uM protein; complete binding; 20 mM HEPES, 40 mM KCl, 1 mM EDTA, 0.2 mM DTT, 0.1 mg/ml BSA, 0.1% Tween-20, 20% glycerol; pH not stated; 1 h at 37 C; 1 nM probe; native 4-20% PAGE; conditions: protein: recombinant; label: 5'-Cy5.5; predicted stem-loop
DNMT3a-CD [5] = molecular target: T1, DNMT3a-CD; assay: EMSA; binding not impaired; 20 mM HEPES, 40 mM KCl, 1 mM EDTA, 0.2 mM DTT, 0.1 mg/ml BSA, 0.1% Tween-20, 20% glycerol; pH not stated; 1 h at 37 C; 1 nM probe; native 4-20% PAGE; conditions: protein: recombinant; label: 5'-Cy5.5; unstructured (predicted)
DNMT3a-CD [6] = molecular target: T1, DNMT3a-CD; assay: EMSA; binding not altered; 20 mM HEPES, 40 mM KCl, 1 mM EDTA, 0.2 mM DTT, 0.1 mg/ml BSA, 0.1% Tween-20, 20% glycerol; pH not stated; 1 h at 37 C; 1 nM probe; native 4-20% PAGE; conditions: protein: recombinant; label: 5'-Cy5.5; unstructured (predicted)

T1 sequence (O88508 608-908): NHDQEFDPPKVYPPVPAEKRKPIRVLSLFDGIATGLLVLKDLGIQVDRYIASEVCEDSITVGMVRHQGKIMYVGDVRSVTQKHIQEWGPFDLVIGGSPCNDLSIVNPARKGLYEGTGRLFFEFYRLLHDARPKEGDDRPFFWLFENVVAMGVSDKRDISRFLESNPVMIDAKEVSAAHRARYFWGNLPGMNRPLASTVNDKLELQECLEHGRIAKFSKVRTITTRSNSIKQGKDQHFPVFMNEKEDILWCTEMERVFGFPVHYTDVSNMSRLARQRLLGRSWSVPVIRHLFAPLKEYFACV
DNMT3a (in DNMT3a/DNMT3l complex);DNMT3l, sequence (Q9Y6K1 whole entry, chain 1 of 2): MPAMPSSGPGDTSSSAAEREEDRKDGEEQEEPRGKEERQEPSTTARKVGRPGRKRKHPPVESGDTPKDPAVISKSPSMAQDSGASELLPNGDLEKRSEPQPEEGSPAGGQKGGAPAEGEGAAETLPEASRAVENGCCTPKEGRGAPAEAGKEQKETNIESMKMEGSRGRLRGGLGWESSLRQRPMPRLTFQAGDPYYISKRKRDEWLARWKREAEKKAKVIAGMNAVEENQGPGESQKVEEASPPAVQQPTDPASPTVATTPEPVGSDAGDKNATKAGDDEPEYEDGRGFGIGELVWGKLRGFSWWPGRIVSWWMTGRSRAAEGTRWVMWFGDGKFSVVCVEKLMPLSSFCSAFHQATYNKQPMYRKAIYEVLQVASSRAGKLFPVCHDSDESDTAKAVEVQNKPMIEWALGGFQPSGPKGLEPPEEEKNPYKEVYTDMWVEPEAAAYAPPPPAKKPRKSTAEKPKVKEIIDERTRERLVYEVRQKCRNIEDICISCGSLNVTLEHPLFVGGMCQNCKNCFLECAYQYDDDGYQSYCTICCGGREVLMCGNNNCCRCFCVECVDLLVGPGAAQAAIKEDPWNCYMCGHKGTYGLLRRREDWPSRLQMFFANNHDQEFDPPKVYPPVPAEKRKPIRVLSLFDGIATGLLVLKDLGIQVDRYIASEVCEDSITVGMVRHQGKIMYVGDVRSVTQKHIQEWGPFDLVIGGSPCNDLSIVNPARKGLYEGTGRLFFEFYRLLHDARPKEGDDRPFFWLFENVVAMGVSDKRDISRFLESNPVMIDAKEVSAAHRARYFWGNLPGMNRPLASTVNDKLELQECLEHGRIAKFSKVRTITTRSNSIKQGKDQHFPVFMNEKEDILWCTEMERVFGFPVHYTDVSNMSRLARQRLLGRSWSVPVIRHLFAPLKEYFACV
DNMT3a (in DNMT3a/DNMT3l complex);DNMT3l, sequence (Q9UJW3 whole entry, chain 2 of 2): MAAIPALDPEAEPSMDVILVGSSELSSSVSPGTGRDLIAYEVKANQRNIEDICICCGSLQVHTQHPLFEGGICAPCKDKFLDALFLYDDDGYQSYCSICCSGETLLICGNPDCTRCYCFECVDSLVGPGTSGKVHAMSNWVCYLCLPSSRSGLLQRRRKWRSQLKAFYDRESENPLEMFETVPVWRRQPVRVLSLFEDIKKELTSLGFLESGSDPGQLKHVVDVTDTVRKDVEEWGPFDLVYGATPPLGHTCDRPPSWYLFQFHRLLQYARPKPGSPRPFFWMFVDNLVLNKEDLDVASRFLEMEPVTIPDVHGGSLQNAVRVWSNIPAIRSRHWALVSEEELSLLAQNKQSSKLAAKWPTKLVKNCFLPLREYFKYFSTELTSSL

B1: ecDNA-1 unlabelled competitor (dsDNA)
DNA 1: GGGGACACGCCCTCTGTTCCCTTAT
DNA 2: ATAAGGGAACAGAGGGCGTGTCCCC
DNMT3a-CD [1]
  IC50: > 20 fold excess over 1 nM ecRNA-1

## GGGGACACGCCCUCUGUUCCCUUAU (ssRNA) [ecRNA-1]
DNMT3a-CD [2]
  binding result: binds
[3]
  binding result: binds

## GUCUGUGCACCGUGUGCAUAUACAG (ssRNA) [ecRNA-2]
DNMT3a-CD [4]
  binding result: binds
[3]
  binding result: binds

## GUCGACACGCCCUCUGUUCCGUUAG (ssRNA) [mutant ecRNA-1]
DNMT3a-CD [5]
  binding result: binds

## GAUGAUCCUGCCUUGAAGUGACGCU (ssRNA) [mutant ecRNA-2]
DNMT3a-CD [6]
  binding result: binds
